Reference: patent US20220281980A1 (Bristol-Myers Squibb, published 2022)

How the values were obtained:
[1] = target: T1, recombinant soluble human MICA*008 antigen (human, UniProt Q29983 24-307); assay: BLI (Octet) sandwich binning on soluble MICA allele 8, row antibody captured; competitor (second antibody): MICA.36
T1 construct: also called huIMICA-his allele *008; recombinant soluble MICA (allele 8)
T1 chain: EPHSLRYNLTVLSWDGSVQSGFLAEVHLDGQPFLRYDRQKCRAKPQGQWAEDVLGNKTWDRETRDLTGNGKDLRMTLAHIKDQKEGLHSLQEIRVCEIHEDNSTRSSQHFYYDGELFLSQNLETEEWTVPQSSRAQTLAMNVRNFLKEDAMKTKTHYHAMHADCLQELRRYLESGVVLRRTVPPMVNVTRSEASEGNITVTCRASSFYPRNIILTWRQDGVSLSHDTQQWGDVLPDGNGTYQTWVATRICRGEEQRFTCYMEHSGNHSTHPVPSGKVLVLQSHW
Procedure: (§1) The binning experiments were performed on an Octet HTX instrument at 25° C. in HEPES buffered saline (10 mM HEPES pH 7.4, 150 mM NaCl, 0.05% v/v surfactant P20, and 1 mg/mL BSA). Anti-MICA/B antibodies and NKG2D-mFc were captured on anti-Fc tips and remaining capture sites were blocked with an excess of negative control IgG. Recombinant soluble MICA (allele 8) was bound and subsequent binding (“sandwiching”) of anti-MICA/B antibodies was tested.

[2] = target: T2, human MICB expressed on transduced cells (human, UniProt Q29980 23-382); assay: saturation binding of 125I-labelled antibody on CHO-MICB cells, 12500 per well; fit of total binding, non-specific binding not subtracted; x axis without unit
T2 construct: also called MICB*005
T2 chain: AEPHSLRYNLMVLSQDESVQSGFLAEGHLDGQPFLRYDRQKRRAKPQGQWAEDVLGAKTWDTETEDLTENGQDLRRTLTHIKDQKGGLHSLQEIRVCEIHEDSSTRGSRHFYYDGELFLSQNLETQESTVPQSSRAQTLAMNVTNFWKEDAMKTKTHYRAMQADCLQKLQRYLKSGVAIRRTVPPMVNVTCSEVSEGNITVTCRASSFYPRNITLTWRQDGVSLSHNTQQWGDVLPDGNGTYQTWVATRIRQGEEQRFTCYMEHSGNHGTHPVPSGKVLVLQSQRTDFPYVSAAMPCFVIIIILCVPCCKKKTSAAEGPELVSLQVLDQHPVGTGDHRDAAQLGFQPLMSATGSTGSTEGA
Procedure: (§2) Nonspecific binding was determined by binding in the presence of a titration of a 100 fold molar excess of unlabeled antibody and was subtracted from total counts per minute (CPM) to calculate specific binding. A linear standard curve of ¹²⁵I-MICA.36 concentration versus CPM was used to extrapolate specific activity, maximal nM bound ¹²⁵I-MICA.36 and thereby calculate receptor number per cell.
(§3) Specific activity of the iodinated MICA.36 was determined by plotting antibody titrations against the associated CPMs in a standard curve (FIG. 7A). The specific activity was calculated to be 164,214 CPM in 1 nM of ¹²⁵I-MICA.36. The number of receptors per cell was calculated by the following equation: (Bmax)×(Avogadro's number)×(Assay Volume)/# of cells per well.

[3] = target: T3, cynomolgus monkey MICA/B clone #6 expressed on CHO cells (cynomolgus monkey); assay: saturation binding of 125I-labelled antibody on CHO-MICA Cyno #6 cells, 25K per well; fit of total binding, non-specific binding not subtracted
T3 construct: whole, on cells; also called cyno#6; CHO-cyno MICA clone #6
Procedure: as §2, §3

[4] = target: T4, human MICA*008 expressed on CHO cells (human, UniProt Q29983 24-331); assay: saturation binding of 125I-labelled antibody on CHO-MICA*008 cells, 12,500 cells/well; fit of total binding, non-specific binding not subtracted
T4 construct: also called MICA allele 008
T4 chain: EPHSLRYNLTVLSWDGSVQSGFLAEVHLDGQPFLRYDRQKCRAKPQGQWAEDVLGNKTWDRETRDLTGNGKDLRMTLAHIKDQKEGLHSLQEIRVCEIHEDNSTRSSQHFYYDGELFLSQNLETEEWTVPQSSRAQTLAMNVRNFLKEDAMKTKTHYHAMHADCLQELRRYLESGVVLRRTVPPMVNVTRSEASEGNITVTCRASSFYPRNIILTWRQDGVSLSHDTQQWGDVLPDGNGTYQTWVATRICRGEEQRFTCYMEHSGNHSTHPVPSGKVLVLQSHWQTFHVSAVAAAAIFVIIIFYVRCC
Procedure: as §2, §3

[5] = target: T5, human MICA/B endogenously expressed on SW480 cells (human, UniProt Q29983 24-383); assay: saturation binding of 125I-labelled antibody on SW480 cells, 25,000 cells/well (Scatchard analysis); x axis 'Ab' carries no unit, nM taken from paragraph 587; non-specific binding is nearly as high as specific binding
T5 construct: whole, on cells
T5 sequence (looked up): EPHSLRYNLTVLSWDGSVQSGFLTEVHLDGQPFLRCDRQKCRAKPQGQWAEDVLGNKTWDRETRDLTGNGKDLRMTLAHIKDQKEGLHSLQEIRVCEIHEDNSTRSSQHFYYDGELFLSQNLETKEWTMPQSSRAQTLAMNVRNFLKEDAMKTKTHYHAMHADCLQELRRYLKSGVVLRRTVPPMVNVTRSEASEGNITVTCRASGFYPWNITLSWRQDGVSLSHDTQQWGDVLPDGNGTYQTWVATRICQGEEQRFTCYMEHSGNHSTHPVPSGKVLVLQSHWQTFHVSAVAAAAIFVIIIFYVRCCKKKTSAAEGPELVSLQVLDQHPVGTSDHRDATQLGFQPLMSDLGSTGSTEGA
Procedure: as §2, §3

[6] = target: T1, recombinant soluble human MICA*008 …; assay: BLI (Octet) sandwich binning on soluble MICA allele 8, row antibody captured; competitor (second antibody): MICA.40
Procedure: as §1

[7] = target: T5, human MICA/B endogenously expressed on …; assay: Scatchard analysis, 125I-MICA.36 on SW480 cells; SW480 cells (FIG. 7G)
Procedure: as §2, §3

[8] = target: T6, human MICA/B endogenously expressed on 786-O cells (MICA allele *008) (human, UniProt Q29983 24-331); assay: saturation binding of 125I-labelled antibody on 786-O cells, 50,000 cells/well (Scatchard analysis); unit from the x axis 'nM Antibody'
T6 construct: it speaks of MICA/B, so MICB may be present as well; also called 786-0
T6 chain: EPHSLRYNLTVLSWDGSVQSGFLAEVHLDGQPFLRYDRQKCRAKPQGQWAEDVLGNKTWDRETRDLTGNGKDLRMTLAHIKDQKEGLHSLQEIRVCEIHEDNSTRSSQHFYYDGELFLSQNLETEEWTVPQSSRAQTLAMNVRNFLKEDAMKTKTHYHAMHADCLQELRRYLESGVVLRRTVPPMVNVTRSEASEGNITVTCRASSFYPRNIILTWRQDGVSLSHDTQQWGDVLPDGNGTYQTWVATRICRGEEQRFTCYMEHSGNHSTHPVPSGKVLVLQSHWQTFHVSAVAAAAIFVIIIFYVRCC
Procedure: as §2, §3

[9] = target: T3, cynomolgus monkey MICA/B clone #6 …; assay: saturation binding of 125I-labelled antibody on CHO-MICA Cyno #6 cells, 25K per well (Scatchard analysis); unit from the x axis 'nM Radioligand'
Procedure: as §2, §3

| Binder | simultaneous binding (0 = no, 1 = yes) [1] | Kd of the total-binding curve [2] [nM] | Kd of the total-binding curve [3] [nM] | Kd of the total-binding curve [4] [nM] | Kd [5] [nM] | simultaneous binding (0 = no, 1 = yes) [6] | Kd [7] [nM] | Kd [8] [nM] | Kd [9] [nM] |
| --- | --- | --- | --- | --- | --- | --- | --- | --- | --- |
| MICA.36 (antibody, V domains shown, it says that the name implies no specific constant region; Radioiodinated in the Scatchard assay; also called MICA.36 antibody) VH: QVQLVESGGGVVQPGRSLRLSCAASGFTFSNYAMHWVRQAPGEGLEWVALIWYDGSNKFYGDSVKGRFTISRDNSKNTLYLQMNSLSAEDTAVYYCAREGSGHYWGQGTLVTVSS VL: AIQLTQSPSSLSASVGDRVTITCRASQGISSALAWYQQKPGKVPKSLIYDASSLESGVPSRFSGSGSGTDFTLTISSLQPEDFATYYCQQFNSYPITFGQGTRLEIK | 0 | 2.8 | 8.27 | 1.24 | 0.385 | 1 | ~0.4 | 0.356 | 5.12 |
| MICA.2 (antibody, human IgG1, kappa, V domains shown, 3F5 variable regions on human IgG1f and human kappa constant regions, made in CHO-S cells; also called 3F5; recombinant antibody of 3F5) VH: EVQLVESGGGLVQPGGSLRLSCAASGFTFSTYSMNWVRQAPGKGLEWVSYISYRSRTIYYADSVKGRFTISRDNARNSLYLQMNSLRDEDTAVYYCARWGYGSGGFDYWGQGTLVTVSS VL: not shown | 1 | – | – | – | – | 0 | – | – | – |
| 24G11 (antibody, V domains shown, also called MICA.54; 24G11 (MICA.54)) VH: EVQLVQSGAEVKKPGESLKISCKGSGYSFTNYWIGWVRQMPGKGLEWLGIIHPGDSYTRYSPSFQGQVTISADKSISTAYLQWSSLKASDTAIYYCAREGIAATPFDYWGQGTLVTVSS VL: EIVLTQSPATLSLSPGERATLSCRASQSVSSYLAWFQQKPGQAPRLLIYDASNRATGIPARFSGSGSGTDFTLTISSLEPEDFAVYYCQQRSNWPPTFGQGTKVEIK | 0 | – | – | – | – | 1 | – | – | – |
